# Patent US20110294144
# Test system: recombinant tau protein (Wako Pure Chemical Industries, Ltd.)
substance,measurement,value
recombinant PRKX protein (Invitrogen),"S214 phosphorylation of tau, in vitro kinase reaction of the two recombinant proteins, Western blot",the amount of S214 phosphorylation was enhanced by the addition of ATP as compared to the control without addition of ATP
